# Laboratory results: PMC9482650, “Quantitative fragmentomics allow affinity mapping of interactomes” (Nature Communications, 2022)
# T1: SNTA1, Q13424
# T1 sequence (Q13424 82-180, limits assumed, looked up): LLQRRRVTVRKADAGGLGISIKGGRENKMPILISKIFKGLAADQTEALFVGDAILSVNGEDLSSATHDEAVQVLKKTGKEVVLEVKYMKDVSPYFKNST
# T2: FRMPD1, Q5SYB0
# T2 sequence (Q5SYB0 52-145, limits assumed, looked up): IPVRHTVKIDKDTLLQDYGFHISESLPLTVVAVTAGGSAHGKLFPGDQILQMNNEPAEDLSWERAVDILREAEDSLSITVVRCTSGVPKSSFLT
# T3: PDZD2_2, O15018
# T3 sequence (O15018 329-429, limits assumed, looked up): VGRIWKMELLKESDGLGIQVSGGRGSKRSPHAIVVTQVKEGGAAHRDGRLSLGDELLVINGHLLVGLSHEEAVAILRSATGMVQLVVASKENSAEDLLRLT
# T4: MPDZ_12, O75970
# T4 sequence (O75970 1857-1958, limits assumed, looked up): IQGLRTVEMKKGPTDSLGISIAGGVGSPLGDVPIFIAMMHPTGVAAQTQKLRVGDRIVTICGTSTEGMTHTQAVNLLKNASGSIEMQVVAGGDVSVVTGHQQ
# T5: LIN7B, Q9HAP6
# T5 sequence (Q9HAP6 88-185, limits assumed, looked up): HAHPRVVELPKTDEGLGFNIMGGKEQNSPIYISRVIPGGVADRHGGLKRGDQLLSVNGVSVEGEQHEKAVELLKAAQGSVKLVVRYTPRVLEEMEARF
# T6: DVL3, Q92997
# T6 sequence (Q92997 244-331, limits assumed, looked up): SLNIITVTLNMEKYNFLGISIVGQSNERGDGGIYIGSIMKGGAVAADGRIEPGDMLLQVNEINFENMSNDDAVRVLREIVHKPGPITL
# T7: DLG3_2, Q92796
# T7 sequence (Q92796 221-321, limits assumed, looked up): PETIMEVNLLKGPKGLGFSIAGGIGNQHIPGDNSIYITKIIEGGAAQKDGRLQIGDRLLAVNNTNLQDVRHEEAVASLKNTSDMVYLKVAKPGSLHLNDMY
# T8: APBA1_2, Q02410
# T8 sequence (Q02410 742-832, limits assumed, looked up): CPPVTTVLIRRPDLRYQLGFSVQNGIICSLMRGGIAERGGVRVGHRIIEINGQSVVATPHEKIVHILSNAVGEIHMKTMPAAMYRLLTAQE
# T9: APBA1_1, Q02410
# T9 sequence (Q02410 651-752, limits assumed, looked up): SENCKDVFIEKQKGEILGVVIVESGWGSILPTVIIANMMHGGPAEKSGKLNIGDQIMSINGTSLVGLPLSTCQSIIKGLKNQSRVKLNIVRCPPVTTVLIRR
# T10: CARD11, Q9BXL7
# T10 sequence (Q9BXL7 662-765, limits assumed, looked up): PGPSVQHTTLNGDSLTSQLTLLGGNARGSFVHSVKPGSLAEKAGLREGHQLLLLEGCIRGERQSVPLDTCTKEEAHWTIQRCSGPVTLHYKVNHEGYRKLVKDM
# T11: GRIP1_5, Q9Y3R0
# T11 sequence (Q9Y3R0 568-668, limits assumed, looked up): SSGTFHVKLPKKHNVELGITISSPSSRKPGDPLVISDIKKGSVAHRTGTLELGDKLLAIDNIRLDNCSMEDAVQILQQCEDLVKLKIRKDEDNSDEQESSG
# Key:
# Assay in all cases: holdup assay
# Set-up in all cases: key: below the threshold = too weak to quantify, mostly under pKd 3.1 to 4
# MAGI2_5, Q86UL8 = biological target: MAGI2_5, Q86UL8
# SNTA1, Q13424 = biological target: T1, SNTA1, Q13424
# FRMPD1, Q5SYB0 = biological target: T2, FRMPD1, Q5SYB0
# GOPC, Q9HD26 = biological target: GOPC, Q9HD26
# FRMPD2_1, Q68DX3 = biological target: FRMPD2_1, Q68DX3
# PDZD2_2, O15018 = biological target: T3, PDZD2_2, O15018
# SCRIB_3, Q14160 = biological target: SCRIB_3, Q14160
# MPDZ_12, O75970 = biological target: T4, MPDZ_12, O75970
# LIN7B, Q9HAP6 = biological target: T5, LIN7B, Q9HAP6
# DVL3, Q92997 = biological target: T6, DVL3, Q92997
# DLG3_2, Q92796 = biological target: T7, DLG3_2, Q92796
# DLG4_2, P78352 = biological target: DLG4_2, P78352
# NHERF4_4, Q86UT5 = biological target: NHERF4_4, Q86UT5
# APBA1_2, Q02410 = biological target: T8, APBA1_2, Q02410
# GIPC2, Q8TF65 = biological target: GIPC2, Q8TF65
# SCRIB_1, Q14160 = biological target: SCRIB_1, Q14160
# DLG1_2, Q12959 = biological target: DLG1_2, Q12959
# APBA1_1, Q02410 = biological target: T9, APBA1_1, Q02410
# FRMPD2_2, Q68DX3 = biological target: FRMPD2_2, Q68DX3
# DLG5_1, Q8TDM6 = biological target: DLG5_1, Q8TDM6
# MAGI2_3, Q86UL8 = biological target: MAGI2_3, Q86UL8
# Inadl_9, Q8NI35 = biological target: Inadl_9, Q8NI35
# CARD11, Q9BXL7 = biological target: T10, CARD11, Q9BXL7
# LNX1_2, Q8TBB1 = biological target: LNX1_2, Q8TBB1
# GRIP1_5, Q9Y3R0 = biological target: T11, GRIP1_5, Q9Y3R0
# IL16_4, Q14005 = biological target: IL16_4, Q14005
# Inadl_4, Q8NI35 = biological target: Inadl_4, Q8NI35
# [1] = plain residues with an end cap or a label only (N-terminal biotin on a linker: gsgsgs; C-terminal amide)
# [2] = plain residues with an end cap or a label only (N-terminal biotin on a linker: ttds)
# [3] = plain residues with an end cap or a label only (N-terminal biotin on a linker: ahx)
# Chain of DLG1_2, Q12959 (Q12959 314-412): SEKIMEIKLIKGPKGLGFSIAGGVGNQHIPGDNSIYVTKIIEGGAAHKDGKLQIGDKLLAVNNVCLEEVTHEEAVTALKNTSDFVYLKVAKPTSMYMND
# Chain of GIPC2, Q8TF65 (Q8TF65 112-203): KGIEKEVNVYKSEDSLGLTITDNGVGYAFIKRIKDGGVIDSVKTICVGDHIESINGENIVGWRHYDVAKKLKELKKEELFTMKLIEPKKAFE
# Chain of FRMPD2_2, Q68DX3 (Q68DX3 944-1038): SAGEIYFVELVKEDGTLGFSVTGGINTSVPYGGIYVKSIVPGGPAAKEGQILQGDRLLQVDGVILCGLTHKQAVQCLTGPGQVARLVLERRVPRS
# Chain of FRMPD2_1, Q68DX3 (Q68DX3 770-861): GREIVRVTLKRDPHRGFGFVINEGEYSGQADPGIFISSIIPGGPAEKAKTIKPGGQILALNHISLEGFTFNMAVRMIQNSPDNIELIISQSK
# Chain of IL16_4, Q14005 (Q14005 1229-1329): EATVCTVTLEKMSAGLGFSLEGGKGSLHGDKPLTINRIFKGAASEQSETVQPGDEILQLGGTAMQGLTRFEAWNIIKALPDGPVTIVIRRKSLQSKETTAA
# Chain of Inadl_9, Q8NI35 (Q8NI35 1530-1615): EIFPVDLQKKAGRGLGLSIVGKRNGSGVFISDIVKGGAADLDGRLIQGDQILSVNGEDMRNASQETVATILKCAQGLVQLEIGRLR
# Chain of SCRIB_1, Q14160 (Q14160 718-814): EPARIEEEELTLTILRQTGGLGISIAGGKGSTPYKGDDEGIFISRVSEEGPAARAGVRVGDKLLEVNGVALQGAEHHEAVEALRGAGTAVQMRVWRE
# Chain of MAGI2_3, Q86UL8 (Q86UL8 600-682): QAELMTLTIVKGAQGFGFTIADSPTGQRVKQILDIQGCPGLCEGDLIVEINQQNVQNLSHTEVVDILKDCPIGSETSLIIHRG
# Chain of MAGI2_5, Q86UL8 (Q86UL8 915-1017): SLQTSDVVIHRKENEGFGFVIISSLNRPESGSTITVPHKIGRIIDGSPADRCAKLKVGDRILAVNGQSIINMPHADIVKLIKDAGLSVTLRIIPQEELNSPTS
# Chain of NHERF4_4, Q86UT5 (Q86UT5 464-550): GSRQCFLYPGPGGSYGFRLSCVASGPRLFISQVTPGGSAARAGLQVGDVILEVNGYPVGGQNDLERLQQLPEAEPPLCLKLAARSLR
# Chain of DLG4_2, P78352 (P78352 155-259): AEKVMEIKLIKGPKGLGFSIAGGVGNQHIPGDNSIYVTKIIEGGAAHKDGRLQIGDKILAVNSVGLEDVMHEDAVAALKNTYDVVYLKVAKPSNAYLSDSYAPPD
# Chain of Inadl_4, Q8NI35 (Q8NI35 547-651): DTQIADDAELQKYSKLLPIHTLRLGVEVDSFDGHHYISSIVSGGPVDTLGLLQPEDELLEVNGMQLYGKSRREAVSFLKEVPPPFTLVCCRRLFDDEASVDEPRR
# Chain of LNX1_2, Q8TBB1 (Q8TBB1 371-470): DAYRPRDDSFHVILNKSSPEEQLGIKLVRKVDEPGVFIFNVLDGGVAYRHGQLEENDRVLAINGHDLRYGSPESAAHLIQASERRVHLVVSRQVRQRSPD
# Chain of SCRIB_3, Q14160 (Q14160 999-1103): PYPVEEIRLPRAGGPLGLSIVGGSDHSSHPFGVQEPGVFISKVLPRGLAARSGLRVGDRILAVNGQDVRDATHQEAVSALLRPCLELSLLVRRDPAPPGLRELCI
# Chain of DLG5_1, Q8TDM6 (Q8TDM6 617-713): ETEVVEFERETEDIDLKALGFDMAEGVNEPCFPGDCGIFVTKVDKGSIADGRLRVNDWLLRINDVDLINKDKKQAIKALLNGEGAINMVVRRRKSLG
binder,measurement,setting,value
"TLSLTDSSVDGIPPYR [AXIN1_int, O15169]",pKd,"MAGI2_5, Q86UL8; [1]",below the threshold
same,pKd,"SNTA1, Q13424; [1]",below the threshold
same,pKd,"FRMPD1, Q5SYB0; [1]",below the threshold
same,pKd,"GOPC, Q9HD26; [1]",below the threshold
same,pKd,"FRMPD2_1, Q68DX3; [1]",below the threshold
same,pKd,"PDZD2_2, O15018; [1]",below the threshold
same,pKd,"SCRIB_3, Q14160; [1]",below the threshold
same,pKd,"MPDZ_12, O75970; [1]",3.55
same,pKd,"LIN7B, Q9HAP6; [1]",3.72
same,pKd,"DVL3, Q92997; [1]",below the threshold
same,pKd,"DLG3_2, Q92796; [1]",4.08
same,pKd,"DLG4_2, P78352; [1]",below the threshold
same,pKd,"NHERF4_4, Q86UT5; [1]",below the threshold
same,pKd,"APBA1_2, Q02410; [1]",below the threshold
same,pKd,"GIPC2, Q8TF65; [1]",below the threshold
same,pKd,"SCRIB_1, Q14160; [1]",below the threshold
same,pKd,"DLG1_2, Q12959; [1]",below the threshold
same,pKd,"APBA1_1, Q02410; [1]",below the threshold
same,pKd,"FRMPD2_2, Q68DX3; [1]",below the threshold
same,pKd,"DLG5_1, Q8TDM6; [1]",below the threshold
same,pKd,"MAGI2_3, Q86UL8; [1]",below the threshold
same,pKd,"Inadl_9, Q8NI35; [1]",below the threshold
same,pKd,"CARD11, Q9BXL7; [1]",below the threshold
same,pKd,"LNX1_2, Q8TBB1; [1]",below the threshold
same,pKd,"GRIP1_5, Q9Y3R0; [1]",below the threshold
same,pKd,"IL16_4, Q14005; [1]",below the threshold
same,pKd,"Inadl_4, Q8NI35; [1]",below the threshold
"SRPQRTQTQV [HPV67-E6, A4U7F2]",pKd,"MAGI2_5, Q86UL8; [2]",3.94
same,pKd,"SNTA1, Q13424; [2]",3.94
same,pKd,"FRMPD1, Q5SYB0; [2]",below the threshold
same,pKd,"GOPC, Q9HD26; [2]",3.58
same,pKd,"FRMPD2_1, Q68DX3; [2]",3.79
same,pKd,"PDZD2_2, O15018; [2]",3.77
same,pKd,"SCRIB_3, Q14160; [2]",3.93
same,pKd,"MPDZ_12, O75970; [2]",below the threshold
same,pKd,"LIN7B, Q9HAP6; [2]",below the threshold
same,pKd,"DVL3, Q92997; [2]",below the threshold
same,pKd,"DLG3_2, Q92796; [2]",5.06
same,pKd,"DLG4_2, P78352; [2]",4.96
same,pKd,"NHERF4_4, Q86UT5; [2]",below the threshold
same,pKd,"APBA1_2, Q02410; [2]",3.54
same,pKd,"GIPC2, Q8TF65; [2]",below the threshold
same,pKd,"SCRIB_1, Q14160; [2]",below the threshold
same,pKd,"DLG1_2, Q12959; [2]",5.01
same,pKd,"APBA1_1, Q02410; [2]",below the threshold
same,pKd,"FRMPD2_2, Q68DX3; [2]",3.53
same,pKd,"DLG5_1, Q8TDM6; [2]",below the threshold
same,pKd,"MAGI2_3, Q86UL8; [2]",below the threshold
same,pKd,"Inadl_9, Q8NI35; [2]",below the threshold
same,pKd,"CARD11, Q9BXL7; [2]",below the threshold
same,pKd,"LNX1_2, Q8TBB1; [2]",below the threshold
same,pKd,"GRIP1_5, Q9Y3R0; [2]",below the threshold
same,pKd,"IL16_4, Q14005; [2]",below the threshold
same,pKd,"Inadl_4, Q8NI35; [2]",below the threshold
"HTHSYIETHV [CNKSR2, Q8WXI2]",pKd,"MAGI2_5, Q86UL8; [3]",4.83
same,pKd,"SNTA1, Q13424; [3]",4.93
same,pKd,"FRMPD1, Q5SYB0; [3]",below the threshold
same,pKd,"GOPC, Q9HD26; [3]",below the threshold
same,pKd,"FRMPD2_1, Q68DX3; [3]",below the threshold
same,pKd,"PDZD2_2, O15018; [3]",4.24
same,pKd,"SCRIB_3, Q14160; [3]",5.11
same,pKd,"MPDZ_12, O75970; [3]",below the threshold
same,pKd,"LIN7B, Q9HAP6; [3]",below the threshold
same,pKd,"DVL3, Q92997; [3]",below the threshold
same,pKd,"DLG3_2, Q92796; [3]",5.04
same,pKd,"DLG4_2, P78352; [3]",4.98
same,pKd,"NHERF4_4, Q86UT5; [3]",below the threshold
same,pKd,"APBA1_2, Q02410; [3]",4.16
same,pKd,"GIPC2, Q8TF65; [3]",below the threshold
same,pKd,"SCRIB_1, Q14160; [3]",5.64
same,pKd,"DLG1_2, Q12959; [3]",5.1
same,pKd,"APBA1_1, Q02410; [3]",below the threshold
same,pKd,"FRMPD2_2, Q68DX3; [3]",4.83
same,pKd,"DLG5_1, Q8TDM6; [3]",below the threshold
same,pKd,"MAGI2_3, Q86UL8; [3]",3.98
same,pKd,"Inadl_9, Q8NI35; [3]",3.64
same,pKd,"CARD11, Q9BXL7; [3]",below the threshold
same,pKd,"LNX1_2, Q8TBB1; [3]",below the threshold
same,pKd,"GRIP1_5, Q9Y3R0; [3]",below the threshold
same,pKd,"IL16_4, Q14005; [3]",below the threshold
same,pKd,"Inadl_4, Q8NI35; [3]",below the threshold
"ERKLSSESQV [LRP4, O75096]",pKd,"MAGI2_5, Q86UL8; [2]",4.08
same,pKd,"SNTA1, Q13424; [2]",3.78
same,pKd,"FRMPD1, Q5SYB0; [2]",below the threshold
same,pKd,"GOPC, Q9HD26; [2]",below the threshold
same,pKd,"FRMPD2_1, Q68DX3; [2]",below the threshold
same,pKd,"PDZD2_2, O15018; [2]",4.39
same,pKd,"SCRIB_3, Q14160; [2]",3.93
same,pKd,"MPDZ_12, O75970; [2]",below the threshold
same,pKd,"LIN7B, Q9HAP6; [2]",below the threshold
same,pKd,"DVL3, Q92997; [2]",below the threshold
same,pKd,"DLG3_2, Q92796; [2]",4.6
same,pKd,"DLG4_2, P78352; [2]",4.69
same,pKd,"NHERF4_4, Q86UT5; [2]",below the threshold
same,pKd,"APBA1_2, Q02410; [2]",below the threshold
same,pKd,"GIPC2, Q8TF65; [2]",4.22
same,pKd,"SCRIB_1, Q14160; [2]",3.63
same,pKd,"DLG1_2, Q12959; [2]",4.75
same,pKd,"APBA1_1, Q02410; [2]",below the threshold
same,pKd,"FRMPD2_2, Q68DX3; [2]",3.48
same,pKd,"DLG5_1, Q8TDM6; [2]",below the threshold
same,pKd,"MAGI2_3, Q86UL8; [2]",below the threshold
same,pKd,"Inadl_9, Q8NI35; [2]",below the threshold
same,pKd,"CARD11, Q9BXL7; [2]",below the threshold
same,pKd,"LNX1_2, Q8TBB1; [2]",below the threshold
same,pKd,"GRIP1_5, Q9Y3R0; [2]",below the threshold
same,pKd,"IL16_4, Q14005; [2]",below the threshold
same,pKd,"Inadl_4, Q8NI35; [2]",below the threshold
